Data published in the RNAGym collection of RNA variant scans (doi:10.1073/pnas.2313332121).

B1: TPR t1 (parent)
chain: GACCAAUCUGCCCUCAGAGCUCGAGAACAUCUUCGGAUGCAGAGGAGGCAGGCUUCGGUGGCGCGAUAGCGCCAACGUCCUCAACCUCCAAUGCAUCCCACCACAUGAUGAUGCCUGAAGAGCCUUGGUUUUUUG

Variants of: B1
Test: polymerase ribozyme fitness, log enrichment relative to wild type (log ratio); higher = more active; in vitro selection for triplet polymerase activity
Method in brief: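 A single round of triplicate in vitro selection, including frozen incubation at −7 °C, was applied to PCR-built, transcribed mutant libraries of each subunit of a heterodimeric triplet polymerase ribozyme. Illumina sequencing of input and output libraries retained genotypes with ≥10 input reads and ≥1 read per output. Fitness is the base-2 logarithm of genotype enrichment divided by wild-type enrichment, from inverse-variance-weighted replicate averages.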

Going from G39U U106C U129C to G39U U109G, the “polymerase ribozyme fitness (log ratio)” value falls from -1.88 to -5.73.

Going from C40A to C40A A43C, the “polymerase ribozyme fitness (log ratio)” value falls from -1.28 to -3.2.

Compared with C40A A43G C56G G135U, C40A A43U C82U is higher in “polymerase ribozyme fitness (log ratio)” value: -4.41 for the first, -3.09 for the second.

Going from C40A A46G U55A C99U G120A to C40A A46G U132A, the “polymerase ribozyme fitness (log ratio)” value rises from -4.32 to -1.49.

Going from C40A A50U C88U U96C G120U to C40A A111C, the “polymerase ribozyme fitness (log ratio)” value rises from -4.53 to -1.49.

First: C40A A118U G120U
Second: C40A C53A G57U
The “polymerase ribozyme fitness (log ratio)” value of the first is lower: -1.37 for the first, -0.732 for the second.

Going from C40A C56G to C40A C72A, the “polymerase ribozyme fitness (log ratio)” value rises from -2.58 to -0.912.

Compared with C40A C72U U92A C115A, C40A C73A U81C C104U is higher in “polymerase ribozyme fitness (log ratio)” value: -1.91 for the first, -0.977 for the second.

Going from C40A C73U to C40A C73U G128U, the “polymerase ribozyme fitness (log ratio)” value falls from -1.17 to -3.11.

First: C40A C73U U78A
Second: C40A C82G
The “polymerase ribozyme fitness (log ratio)” value of the first is higher: -0.967 for the first, -1.95 for the second.

C40A C85G C88U U129G and C40A C86U G110U U112C are within 0.2 log units of each other in “polymerase ribozyme fitness (log ratio)” value: -3.87 for the first, -3.84 for the second.

Going from C40A C114A to C40A G42A G48U G58A A90G, the “polymerase ribozyme fitness (log ratio)” value rises from -3.51 to -2.65.

First: C40A G44A U92G A95U C115U
Second: C40A G44U G45A
The “polymerase ribozyme fitness (log ratio)” value of the first is lower: -6.45 for the first, -3.66 for the second.

Compared with C40A G45U, C40A G45U G71C U92A is lower in “polymerase ribozyme fitness (log ratio)” value: -2.77 for the first, -6.28 for the second.

Compared with C40A G48A C70U, C40A G52A C73U C104U U126A is lower in “polymerase ribozyme fitness (log ratio)” value: -2.07 for the first, -3.9 for the second.

Going from C40A G57U G122U to C40A G60U A91G G135C, the “polymerase ribozyme fitness (log ratio)” value falls from -2.54 to -4.18.

Going from C40A G61C A66U G128U U129A U133G to C40A G69C, the “polymerase ribozyme fitness (log ratio)” value rises from -6 to -2.42.

First: C40A G69C C85G G110U U112C
Second: C40A G69C U130C
The “polymerase ribozyme fitness (log ratio)” value of the first is lower: -6.63 for the first, -2.11 for the second.

First: C40A G71A
Second: C40A G71C C101A U131C
The “polymerase ribozyme fitness (log ratio)” value of the first is higher: -2 for the first, -3.67 for the second.

Going from C40A G71U to C40A G127C, the “polymerase ribozyme fitness (log ratio)” value falls from -1.52 to -2.27.

Compared with C40A U87G, C40A U92G C123G is lower in “polymerase ribozyme fitness (log ratio)” value: -1.04 for the first, -1.39 for the second.

Going from C40A U109C C115U to C40A U129G U131A G135C, the “polymerase ribozyme fitness (log ratio)” value rises from -6.69 to -4.21.

C40A U131A and C40G are within 0.2 log units of each other in “polymerase ribozyme fitness (log ratio)” value: -1.11 for the first, -0.921 for the second.

First: C40G A41U C70U C124G
Second: C40G A43G U54A
The “polymerase ribozyme fitness (log ratio)” value of the first is higher: -3.14 for the first, -4.85 for the second.

Going from C40G A46C G51U C62U U87G C115G to C40G A46U C53U C62A, the “polymerase ribozyme fitness (log ratio)” value rises from -6.61 to -3.89.

Going from C40G A50U to C40G A84G, the “polymerase ribozyme fitness (log ratio)” value falls from -0.606 to -2.06.

Going from C40G A95U to C40G C49U G69A U78A, the “polymerase ribozyme fitness (log ratio)” value falls from -3.37 to -4.96.

Going from C40G C53A C70U C115G U125A to C40G C56U A91C, the “polymerase ribozyme fitness (log ratio)” value rises from -3.58 to -2.49.

Compared with C40G C56U C70A G77A C88U A103U A119G, C40G C56U G69U is higher in “polymerase ribozyme fitness (log ratio)” value: -7.04 for the first, -3.63 for the second.

First: C40G C56U G128C
Second: C40G C70G
The “polymerase ribozyme fitness (log ratio)” value of the first is higher: -3.4 for the first, -4.89 for the second.

Compared with C40G C70U U106A U116A G120C, C40G C72U is higher in “polymerase ribozyme fitness (log ratio)” value: -2.18 for the first, -1.47 for the second.

Going from C40G C72U G93A to C40G C82A A83C U87A A121U, the “polymerase ribozyme fitness (log ratio)” value rises from -0.859 to -0.502.

Going from C40G C86U A100U to C40G C86U C101A, the “polymerase ribozyme fitness (log ratio)” value rises from -3.33 to -2.66.

Going from C40G C88G U125G to C40G C94A, the “polymerase ribozyme fitness (log ratio)” value rises from -6.8 to -2.65.

First: C40G C94A G110C C114U A118G
Second: C40G C101G C104U
The “polymerase ribozyme fitness (log ratio)” value of the first is lower: -6.35 for the first, -3.21 for the second.

Going from C40G C102A to C40G C115A G120C G122U, the “polymerase ribozyme fitness (log ratio)” value rises from -3.26 to -1.41.

Going from C40G C124A to C40G G44C A74U U78G, the “polymerase ribozyme fitness (log ratio)” value falls from 1.16 to -2.88.

Going from C40G G44U C85U to C40G G44U G63C C85U, the “polymerase ribozyme fitness (log ratio)” value falls from -5.09 to -5.9.

Compared with C40G G45U U106A U112A, C40G G47U A74U is lower in “polymerase ribozyme fitness (log ratio)” value: -0.392 for the first, -4.86 for the second.

Compared with C40G G52A A118U, C40G G52A U78A C101A G120U is lower in “polymerase ribozyme fitness (log ratio)” value: -0.83 for the first, -2 for the second.

Going from C40G G52U to C40G G60U C104A, the “polymerase ribozyme fitness (log ratio)” value rises from -2.76 to -1.87.

Going from C40G G61A C104A U106C to C40G G69A, the “polymerase ribozyme fitness (log ratio)” value falls from -1.7 to -3.43.
